Test results as given in the supplement of paper PMC10219994.
± gives the standard deviation of the averaged measurements.

B1: library; a variant is named by its letters at N, in order (parent)
chain: GAGACCGCAACTGAAAAGTTGTGGNNNNNATAGTGAGTCGCTGCCTGCAAAGACACAACT

Variants of: B1
Test: ligation selection enrichment (abundance after / before one-round selection) (fold); higher = more template-directed ligation activity
Conditions: with T7Psub CACGGAUGCUAAUACGACUCACUAUA; MgCl2 25 mM; 42 °C; 4 h; pH 8.5
Method in brief: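 In each of two independent experiments, 6 μM RNA substrate was reacted for 4 h at 42 °C with 0.75 μM of a T7-transcribed RNA ligase library randomized at five core positions, in buffer containing 50 mM EPPS pH 8.5 and 25 mM MgCl2. Only reads scoring ≥30 in quality at all randomized positions were counted after MiSeq sequencing. Each enrichment value is the ratio of abundance after ligation to abundance before ligation.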

| Variant | ligation selection enrichment |
| --- | --- |
| AGTAG | 1.697 ± 0.012 |
| AGTAT | 6.55 ± 1.2 |
| GGTAT | 5.34 ± 1.2 |
| CGTAT | 4.81 ± 0.52 |
| TGTAT | 1.97 ± 0.21 |
| GGTCA | 0.9187 ± 0.002 |
| AGTCA | 0.891 ± 0.1 |
| CGTCA | 0.569 ± 0.038 |
| TGTCA | 0.325 ± 0.025 |
| TGTCC | 0.338 ± 0.055 |
| GGTCC | 0.277 ± 0.02 |
| CGTCC | 0.192 ± 0.059 |
| AGTCC | 0.157 ± 0.034 |
| TGTCG | 0.653 ± 0.0083 |
| AGTCG | 3.1 ± 0.045 |
| GGTCG | 2.83 ± 0.25 |
| CGTCG | 2.71 ± 0.46 |
| CGTCT | 0.522 ± 0.15 |
| AGTCT | 0.506 ± 0.043 |
| GGTCT | 0.471 ± 0.12 |
| TGTCT | 0.335 ± 0.099 |
| AGTGA | 0.842 ± 0.093 |
| GGTGA | 0.641 ± 0.064 |
| TGTGA | 0.629 ± 0.018 |
| CGTGA | 0.58 ± 0.047 |
| GGTGC | 0.226 ± 0.03 |

| Variant | ligation selection enrichment |
| --- | --- |
| CGTGC | 0.196 ± 0.039 |
| AGTGC | 0.186 ± 0.0091 |
| TGTGC | 0.151 ± 0.015 |
| AGTGG | 0.414 ± 0.077 |
| GGTGG | 0.374 ± 0.12 |
| CGTGG | 0.261 ± 0.044 |
| TGTGG | 0.196 ± 0.025 |
| TGTGT | 0.102 ± 0.061 |
| GGTGT | 0.181 ± 0.16 |
| CGTGT | 0.172 ± 0.066 |
| AGTGT | 0.133 ± 0.035 |
| GGTTA | 0.477 ± 0.095 |
| AGTTA | 0.434 ± 0.065 |
| CGTTA | 0.263 ± 0.01 |
| TGTTA | 0.2185 ± 0.00099 |
| GGTTC | 0.216 ± 0.015 |
| AGTTC | 0.176 ± 0.014 |
| TGTTC | 0.147 ± 0.071 |
| CGTTC | 0.124 ± 0.0021 |
| TGTTG | 1.1 ± 0.08 |
| GGTTG | 3.91 ± 0.67 |
| AGTTG | 3.78 ± 0.71 |
| CGTTG | 2.11 ± 0.56 |
| TGTTT | 0.468 ± 0.2 |
| GGTTT | 0.452 ± 0.082 |
| AGTTT | 0.427 ± 0.11 |

| Variant | ligation selection enrichment |
| --- | --- |
| CGTTT | 0.379 ± 0.0055 |
| TTAAA | 0.329 ± 0.06 |
| GTAAA | 0.321 ± 0.067 |
| ATAAA | 0.228 ± 0.05 |
| CTAAA | 0.114 ± 0.017 |
| TTAAC | 0.52 ± 0.0073 |
| GTAAC | 0.305 ± 0.011 |
| ATAAC | 0.204 ± 0.038 |
| CTAAC | 0.146 ± 0.054 |
| TTAAG | 0.69 ± 0.15 |
| GTAAG | 0.509 ± 0.011 |
| ATAAG | 0.373 ± 0.099 |
| CTAAG | 0.314 ± 0.043 |
| TTAAT | 7.9 ± 1.6 |
| GTAAT | 4.35 ± 0.56 |
| ATAAT | 2.48 ± 0.27 |
| CTAAT | 1.29 ± 0.25 |
| GTACA | 0.288 ± 0.094 |
| ATACA | 0.257 ± 0.032 |
| TTACA | 0.193 ± 0.00088 |
| CTACA | 0.114 ± 0.0039 |
| ATACC | 0.169 ± 0.016 |
| GTACC | 0.165 ± 0.011 |
| TTACC | 0.142 ± 0.02 |
| CTACC | 0.116 ± 0.021 |
| TTACG | 0.5128 ± 0.0029 |

| Variant | ligation selection enrichment |
| --- | --- |
| CTACG | 0.429 ± 0.14 |
| ATACG | 1.5 ± 0.28 |
| GTACG | 1.47 ± 0.055 |
| CTACT | 0.785 ± 0.19 |
| GTACT | 0.785 ± 0.17 |
| TTACT | 0.603 ± 0.42 |
| ATACT | 0.541 ± 0.11 |
| GTAGA | 1.05 ± 0.13 |
| ATAGA | 0.543 ± 0.062 |
| TTAGA | 0.304 ± 0.054 |
| CTAGA | 0.263 ± 0.038 |
| GTAGC | 0.191 ± 0.035 |
| TTAGC | 0.139 ± 0.035 |
| ATAGC | 0.131 ± 0.033 |
| CTAGC | 0.123 ± 0.0069 |
| GTAGG | 0.422 ± 0.043 |
| TTAGG | 0.306 ± 0.061 |
| ATAGG | 0.3 ± 0.012 |
| CTAGG | 0.212 ± 0.06 |
| TTAGT | 0.265 ± 0.074 |
| CTAGT | 0.209 ± 0.029 |
| ATAGT | 0.17 ± 0.01 |
| GTAGT | 0.166 ± 0.037 |
| TTATA | 0.465 ± 0.12 |
| GTATA | 0.2557 ± 0.00086 |
| ATATA | 0.239 ± 0.089 |

| Variant | ligation selection enrichment |
| --- | --- |
| CTATA | 0.148 ± 0.068 |
| ATATC | 0.177 ± 0.029 |
| GTATC | 0.167 ± 0.036 |
| TTATC | 0.152 ± 0.02 |
| CTATC | 0.144 ± 0.0049 |
| ATATG | 1.01 ± 0.061 |
| TTATG | 0.377 ± 0.02 |
| CTATG | 0.36 ± 0.029 |
| GTATG | 1.4 ± 0.24 |
| CTATT | 0.546 ± 0.083 |
| GTATT | 0.236 ± 0.12 |
| TTATT | 0.206 ± 0.071 |
| ATATT | 0.203 ± 0.037 |
| GTCAA | 0.766 ± 0.16 |
| ATCAA | 0.518 ± 0.024 |
| TTCAA | 0.427 ± 0.13 |
| CTCAA | 0.116 ± 0.038 |
| CTCAC | 0.0889 ± 0.01 |
| TTCAC | 0.38 ± 0.036 |
| GTCAC | 0.221 ± 0.0092 |
| ATCAC | 0.175 ± 0.028 |
| ATCAG | 0.722 ± 0.0083 |
| GTCAG | 0.628 ± 0.038 |
| TTCAG | 0.375 ± 0.049 |
| CTCAG | 0.169 ± 0.011 |
| ATCAT | 0.391 ± 0.082 |

| Variant | ligation selection enrichment |
| --- | --- |
| TTCAT | 3.73 ± 1.1 |
| GTCAT | 0.373 ± 0.0027 |
| CTCAT | 0.104 ± 0.013 |
| CTCCA | 0.1489 ± 0.00039 |
| ATCCA | 0.148 ± 0.027 |
| GTCCA | 0.148 ± 0.0086 |
| TTCCA | 0.142 ± 0.0024 |
| CTCCC | 0.0937 ± 0.042 |
| TTCCC | 0.175 ± 0.022 |
| ATCCC | 0.168 ± 0.049 |
| GTCCC | 0.151 ± 0.0044 |
| TTCCG | 0.813 ± 0.068 |
| ATCCG | 0.765 ± 0.036 |
| GTCCG | 0.529 ± 0.022 |
| CTCCG | 0.347 ± 0.032 |
| CTCCT | 0.503 ± 0.14 |
| ATCCT | 0.468 ± 0.17 |
| TTCCT | 0.443 ± 0.21 |
| GTCCT | 0.266 ± 0.14 |
| CTCGA | 0.501 ± 0.012 |
| ATCGA | 3.45 ± 0.064 |
| GTCGA | 2.56 ± 0.37 |
| TTCGA | 2.1 ± 0.11 |
| ATCGC | 0.48 ± 0.024 |
